From patent publication US20110212097A1

How the values were obtained:
[1] = target: SOD1 oxidized with H2O2 (Homo sapiens (Human)) (UniProt P00441); assay: ELISA mean; 10 mM H2O2
[2] = target: SOD1 oxidized with a mixture of ascorbate and copperchloride (Homo sapiens (Human)) (UniProt P00441); assay: ELISA rep3; 6 hr CuCl
[3] = target: SOD1 oxidized with a mixture of ascorbate and copperchloride (Homo sapiens (Human)) (UniProt P00441); assay: ELISA rep3; 1 hr CuCl
[4] = target: SOD1 oxidized with a mixture of ascorbate and copperchloride (Homo sapiens (Human)) (UniProt P00441); assay: ELISA rep2; 6 hr CuCl
[5] = target: SOD1 oxidized with a mixture of ascorbate and copperchloride (Homo sapiens (Human)) (UniProt P00441); assay: ELISA rep2; 1 hr CuCl
[6] = target: SOD1 oxidized with H2O2 (Homo sapiens (Human)) (UniProt P00441); assay: ELISA mean; 100 uM H2O2
[7] = target: SOD1 oxidized with H2O2 (Homo sapiens (Human)) (UniProt P00441); assay: ELISA mean; 1 mM H2O2
[8] = target: natively folded SOD1 (SOD1 in PBS) (Homo sapiens (Human)) (UniProt P00441); assay: ELISA rep3; SOD-PBS
[9] = target: BSA control in PBS (UniProt P02769); assay: ELISA rep2; BSA-PBS
[10] = target: SOD1 oxidized with a mixture of ascorbate and copperchloride (Homo sapiens (Human)) (UniProt P00441); assay: ELISA rep1; 6 hr CuCl
[11] = target: SOD1 oxidized with a mixture of ascorbate and copperchloride (Homo sapiens (Human)) (UniProt P00441); assay: ELISA rep1; 1 hr CuCl
[12] = target: SOD1 oxidized with a mixture of ascorbate and copperchloride (Homo sapiens (Human)) (UniProt P00441); assay: ELISA rep2; 3 hr CuCl
[13] = target: SOD1 oxidized with H2O2 (Homo sapiens (Human)) (UniProt P00441); assay: ELISA rep3; 100 uM H2O2
[14] = target: SOD1 oxidized with a mixture of ascorbate and copperchloride (Homo sapiens (Human)) (UniProt P00441); assay: ELISA rep1; 0 hr CuCl
[15] = target: denatured or misfolded SOD1 (SOD1 in denaturation buffer with 6M GdnHCl) (Homo sapiens (Human)) (UniProt P00441); assay: ELISA mean; SOD-Gnd
[16] = target: denatured or misfolded SOD1 (SOD1 in denaturation buffer with 6M GdnHCl) (Homo sapiens (Human)) (UniProt P00441); assay: ELISA rep2; SOD-Gnd
[17] = target: SOD1 oxidized with H2O2 (Homo sapiens (Human)) (UniProt P00441); assay: ELISA rep1; 1 mM H2O2
[18] = target: SOD1 oxidized with a mixture of ascorbate and copperchloride (Homo sapiens (Human)) (UniProt P00441); assay: ELISA rep1; 3 hr CuCl
[19] = target: SOD1 oxidized with H2O2 (Homo sapiens (Human)) (UniProt P00441); assay: ELISA rep1; 10 mM H2O2
[20] = target: SOD1 oxidized with a mixture of ascorbate and copperchloride (Homo sapiens (Human)) (UniProt P00441); assay: ELISA rep2; 0 hr CuCl
[21] = target: natively folded SOD1 (SOD1 in PBS) (Homo sapiens (Human)) (UniProt P00441); assay: ELISA rep1; SOD-PBS
[22] = target: SOD1 oxidized with a mixture of ascorbate and copperchloride (Homo sapiens (Human)) (UniProt P00441); assay: ELISA mean; 3 hr CuCl
[23] = target: denatured or misfolded SOD1 (SOD1 in denaturation buffer with 6M GdnHCl) (Homo sapiens (Human)) (UniProt P00441); assay: ELISA rep1; SOD-Gnd
[24] = target: BSA control in PBS (UniProt P02769); assay: ELISA rep1; BSA-PBS
[25] = target: natively folded SOD1 (SOD1 in PBS) (Homo sapiens (Human)) (UniProt P00441); assay: ELISA mean; SOD-PBS
[26] = target: BSA control in PBS (UniProt P02769); assay: ELISA mean; BSA-PBS
[27] = target: SOD1 oxidized with H2O2 (Homo sapiens (Human)) (UniProt P00441); assay: ELISA rep3; 1 mM H2O2
[28] = target: natively folded SOD1 (SOD1 in PBS) (Homo sapiens (Human)) (UniProt P00441); assay: ELISA rep2; SOD-PBS
[29] = target: SOD1 oxidized with a mixture of ascorbate and copperchloride (Homo sapiens (Human)) (UniProt P00441); assay: ELISA rep3; 0 hr CuCl
[30] = target: SOD1 oxidized with H2O2 (Homo sapiens (Human)) (UniProt P00441); assay: ELISA rep2; 100 uM H2O2
[31] = target: SOD1 oxidized with H2O2 (Homo sapiens (Human)) (UniProt P00441); assay: ELISA rep3; 10 mM H2O2
[32] = target: denatured or misfolded SOD1 (SOD1 in denaturation buffer with 6M GdnHCl) (Homo sapiens (Human)) (UniProt P00441); assay: ELISA rep3; SOD-Gnd
[33] = target: SOD1 oxidized with H2O2 (Homo sapiens (Human)) (UniProt P00441); assay: ELISA rep1; 100 uM H2O2
[34] = target: SOD1 oxidized with a mixture of ascorbate and copperchloride (Homo sapiens (Human)) (UniProt P00441); assay: ELISA rep3; 3 hr CuCl
[35] = target: SOD1 oxidized with a mixture of ascorbate and copperchloride (Homo sapiens (Human)) (UniProt P00441); assay: ELISA mean; 1 hr CuCl
[36] = target: SOD1 oxidized with a mixture of ascorbate and copperchloride (Homo sapiens (Human)) (UniProt P00441); assay: ELISA mean; 0 hr CuCl
[37] = target: SOD1 oxidized with H2O2 (Homo sapiens (Human)) (UniProt P00441); assay: ELISA rep2; 10 mM H2O2
[38] = target: BSA control in PBS (UniProt P02769); assay: ELISA rep3; BSA-PBS
[39] = target: SOD1 oxidized with H2O2 (Homo sapiens (Human)) (UniProt P00441); assay: ELISA rep2; 1 mM H2O2
[40] = target: SOD1 oxidized with a mixture of ascorbate and copperchloride (Homo sapiens (Human)) (UniProt P00441); assay: ELISA mean; 6 hr CuCl
[41] = target: human transferrin (human) (UniProt P02787); assay: indirect ELISA, control antigen
UniProt P02787, sequence (P02787 20-698 limits assumed): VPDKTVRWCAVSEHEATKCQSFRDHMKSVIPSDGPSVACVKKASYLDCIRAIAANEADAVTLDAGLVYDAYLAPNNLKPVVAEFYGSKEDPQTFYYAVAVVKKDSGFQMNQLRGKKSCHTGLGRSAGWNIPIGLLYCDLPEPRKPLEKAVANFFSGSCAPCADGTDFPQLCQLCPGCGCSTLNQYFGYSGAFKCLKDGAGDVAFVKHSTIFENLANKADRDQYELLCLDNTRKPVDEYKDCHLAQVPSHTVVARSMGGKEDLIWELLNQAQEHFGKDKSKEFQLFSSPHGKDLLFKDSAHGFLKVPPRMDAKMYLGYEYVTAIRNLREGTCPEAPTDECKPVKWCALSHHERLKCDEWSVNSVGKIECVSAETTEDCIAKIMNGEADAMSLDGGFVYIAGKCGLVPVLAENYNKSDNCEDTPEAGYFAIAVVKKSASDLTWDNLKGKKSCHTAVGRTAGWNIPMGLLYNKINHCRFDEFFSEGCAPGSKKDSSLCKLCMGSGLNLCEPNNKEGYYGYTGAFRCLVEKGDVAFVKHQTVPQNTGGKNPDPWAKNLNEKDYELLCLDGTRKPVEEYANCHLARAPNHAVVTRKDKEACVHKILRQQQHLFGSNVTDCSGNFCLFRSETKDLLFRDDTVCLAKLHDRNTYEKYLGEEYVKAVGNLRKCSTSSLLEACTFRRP

[42] = target: natively folded SOD1 (SOD1 in PBS) (Homo sapiens (Human)) (UniProt P00441); assay: ELISA, SOD1 minus BSA
[43] = target: denatured or misfolded SOD1 (SOD1 in denaturation buffer with 6M GdnHCl) (Homo sapiens (Human)) (UniProt P00441); assay: ELISA, SOD1 minus BSA
[44] = target: DSE-2-BSA antigen (human); assay: indirect ELISA Exp #2
[45] = target: natively folded SOD1 (SOD1 in PBS) (Homo sapiens (Human)) (UniProt P00441); assay: ELISA rep2
[46] = target: denatured or misfolded SOD1 (SOD1 in denaturation buffer with 6M GdnHCl) (Homo sapiens (Human)) (UniProt P00441); assay: ELISA rep2
[47] = target: BSA control in GdnHCl (UniProt P02769); assay: ELISA rep2
[48] = target: BSA control in PBS (UniProt P02769); assay: ELISA rep2
[49] = target: natively folded SOD1 (SOD1 in PBS) (Homo sapiens (Human)) (UniProt P00441); assay: ELISA mean
[50] = target: denatured or misfolded SOD1 (SOD1 in denaturation buffer with 6M GdnHCl) (Homo sapiens (Human)) (UniProt P00441); assay: ELISA mean
[51] = target: BSA control in GdnHCl (UniProt P02769); assay: ELISA mean
[52] = target: BSA control in PBS (UniProt P02769); assay: ELISA mean
[53] = target: natively folded SOD1 (SOD1 in PBS) (Homo sapiens (Human)) (UniProt P00441); assay: ELISA rep1
[54] = target: denatured or misfolded SOD1 (SOD1 in denaturation buffer with 6M GdnHCl) (Homo sapiens (Human)) (UniProt P00441); assay: ELISA rep1
[55] = target: BSA control in GdnHCl (UniProt P02769); assay: ELISA rep1
[56] = target: BSA control in PBS (UniProt P02769); assay: ELISA rep1
[57] = target: denatured or misfolded SOD1 (SOD1 in denaturation buffer with 6M GdnHCl) (Homo sapiens (Human)) (UniProt P00441); assay: ELISA, unfolded vs natively folded SOD1
[58] = target: DSE-2-BSA antigen (human); assay: indirect ELISA Exp #1

## anti-DSE2 IgG mAb clone 10E11C11 (antibody)
[1]
  absorbance: 0.851
[2]
  absorbance: 1.04
[3]
  absorbance: 1.03
[4]
  absorbance: 0.987
[5]
  absorbance: 1.03
[6]
  absorbance: 0.473
[7]
  absorbance: 0.77
[8]
  absorbance: 0.389
[9]
  absorbance: 0.098
[10]
  absorbance: 1.04
[11]
  absorbance: 1.02
[12]
  absorbance: 1.06
[13]
  absorbance: 0.453
[14]
  absorbance: 0.67
[15]
  absorbance: 1.24
[16]
  absorbance: 1.25
[17]
  absorbance: 0.776
[18]
  absorbance: 1.06
[19]
  absorbance: 0.836
[20]
  absorbance: 0.669
[21]
  absorbance: 0.357
[22]
  absorbance: 1.07
[23]
  absorbance: 1.24
[24]
  absorbance: 0.12
[25]
  absorbance: 0.369
[26]
  absorbance: 0.103
[27]
  absorbance: 0.781
[28]
  absorbance: 0.362
[29]
  absorbance: 0.664
[30]
  absorbance: 0.476
[31]
  absorbance: 0.878
[32]
  absorbance: 1.23
[33]
  absorbance: 0.489
[34]
  absorbance: 1.08
[35]
  absorbance: 1.03
[36]
  absorbance: 0.668
[37]
  absorbance: 0.84
[38]
  absorbance: 0.091
[39]
  absorbance: 0.752
[40]
  absorbance: 1.02

## anti-DSE2 hybridoma clone 3H1 (antibody)
[1]
  absorbance: 0.745
[41]
  OD450: 0.081 OD450
[4]
  absorbance: 1.49
[5]
  absorbance: 1.44
[6]
  absorbance: 0.43
[7]
  absorbance: 0.731
[42]
  S-N (F): 0.251 OD450
[43]
  S-N (U): 1.99 OD450
[44]
  OD450: 1.91 OD450
[9]
  absorbance: 0.076
[10]
  absorbance: 1.38
[45]
  OD450: 0.563 OD450
[46]
  OD450: 2.1 OD450
[47]
  OD450: 0.162 OD450
[48]
  OD450: 0.15 OD450
[11]
  absorbance: 1.59
[49]
  OD450: 0.41 OD450
[50]
  OD450: 2.15 OD450
[51]
  OD450: 0.164 OD450
[52]
  OD450: 0.156 OD450
[12]
  absorbance: 1.62
[14]
  absorbance: 0.527
[53]
  OD450: 0.257 OD450
[54]
  OD450: 2.19 OD450
[55]
  OD450: 0.165 OD450
[56]
  OD450: 0.161 OD450
[15]
  absorbance: 2.29
[16]
  absorbance: 2.29
[17]
  absorbance: 0.744
[18]
  absorbance: 1.72
[57]
  U/F: 7.93 fold
[19]
  absorbance: 0.763
[20]
  absorbance: 0.59
[21]
  absorbance: 0.34
[22]
  absorbance: 1.67
[23]
  absorbance: 2.29
[24]
  absorbance: 0.078
[25]
  absorbance: 0.338
[26]
  absorbance: 0.077
[28]
  absorbance: 0.335
[58]
  OD450: 1.98 OD450
[30]
  absorbance: 0.425
[33]
  absorbance: 0.436
[35]
  absorbance: 1.51
[36]
  absorbance: 0.558
[37]
  absorbance: 0.726
[39]
  absorbance: 0.717
[40]
  absorbance: 1.43
